# According to the supplement of paper PMC9112550, “Optimization of the antimicrobial peptide Bac7 by deep mutational scanning” (BMC Biology, 2022):
# Test system: Escherichia coli TOP10
# Assay: shrunken log2 fold change of peptide-encoding DNA abundance (4.5 h post-induction vs induction); higher = less antimicrobial activity (less host growth inhibition)
# Conditions: time post-induction: 4.5 h; library: site-saturation at positions 5, 18, 19, 20
# 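Note: peptides expressed intracellularly from a pBAD plasmid library in pooled LB shake-flask culture, induced with 0.3% L-arabinose, DNA abundance read by NGS, three biological replicates, DESeq2 with apeglm shrinkage.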
row,Sequence,shrunken log2 fold change
1,RRIRMRPPRLPRPRPRPDAVPRP,3.73
2,RRIRFRPPRLPRPRPRPPIWPRP,0.317
3,RRIRTRPPRLPRPRPRPQKLPRP,-0.364
4,RRIRFRPPRLPRPRPRPELAPRP,0.0952
5,RRIRLRPPRLPRPRPRPNVCPRP,-0.0138
6,RRIRFRPPRLPRPRPRPAYLPRP,-0.649
7,RRIRVRPPRLPRPRPRPIVTPRP,-0.214
8,RRIRVRPPRLPRPRPRPHVIPRP,-0.0921
9,RRIRIRPPRLPRPRPRPVVFPRP,0.0165
10,RRIRKRPPRLPRPRPRPHCYPRP,-0.605
11,RRIRFRPPRLPRPRPRPLSKPRP,0.72
12,RRIRWRPPRLPRPRPRPDAFPRP,0.0334
13,RRIRCRPPRLPRPRPRPSTCPRP,-0.355
14,RRIRWRPPRLPRPRPRPNCVPRP,0.0603
15,RRIRIRPPRLPRPRPRPPEKPRP,-0.0181
16,RRIRFRPPRLPRPRPRPVWNPRP,-0.0763
17,RRIRDRPPRLPRPRPRPINVPRP,0.0039
18,RRIRGRPPRLPRPRPRPHIMPRP,-0.0914
19,RRIRERPPRLPRPRPRPYVSPRP,-0.672
20,RRIRTRPPRLPRPRPRPGDKPRP,0.137
21,RRIRERPPRLPRPRPRPLQGPRP,-0.179
22,RRIRWRPPRLPRPRPRPSISPRP,-0.283
23,RRIRDRPPRLPRPRPRPRLNPRP,-0.0317
24,RRIRVRPPRLPRPRPRPITIPRP,-0.0236
25,RRIRSRPPRLPRPRPRPNNPPRP,-0.3

row,Sequence,shrunken log2 fold change
1,RRIRTRPPRLPRPRPRPTAPPRP,0.159
2,RRIRDRPPRLPRPRPRPNQTPRP,0.0331
3,RRIRFRPPRLPRPRPRPECHPRP,0.0585
4,RRIRCRPPRLPRPRPRPFGDPRP,-0.00748
5,RRIRCRPPRLPRPRPRPVDKPRP,-0.184
6,RRIRHRPPRLPRPRPRPKSIPRP,-0.136
7,RRIRDRPPRLPRPRPRPQWVPRP,-0.0468
8,RRIRKRPPRLPRPRPRPVNMPRP,0.113
9,RRIRVRPPRLPRPRPRPRDYPRP,-0.0816
10,RRIRERPPRLPRPRPRPMNNPRP,-0.637
11,RRIRIRPPRLPRPRPRPADAPRP,-0.291
12,RRIRRRPPRLPRPRPRPQGPPRP,0.206
13,RRIRLRPPRLPRPRPRPCTIPRP,-0.298
14,RRIRYRPPRLPRPRPRPVFEPRP,0.0623
15,RRIRVRPPRLPRPRPRPFMKPRP,-0.737
16,RRIRWRPPRLPRPRPRPGATPRP,1.02
17,RRIRPRPPRLPRPRPRPSCMPRP,-0.279
18,RRIRARPPRLPRPRPRPGLMPRP,0.524
19,RRIRERPPRLPRPRPRPIEVPRP,-0.00196
20,RRIRKRPPRLPRPRPRPHQPPRP,0.413
21,RRIRNRPPRLPRPRPRPVRYPRP,-0.0196
22,RRIRPRPPRLPRPRPRPPQGPRP,0.686
23,RRIRHRPPRLPRPRPRPRLEPRP,0.0466
24,RRIRSRPPRLPRPRPRPDHTPRP,-0.407
25,RRIRSRPPRLPRPRPRPRQWPRP,0.69

row,Sequence,shrunken log2 fold change
1,RRIRGRPPRLPRPRPRPKTKPRP,0.0509
2,RRIRARPPRLPRPRPRPPPHPRP,1.03
3,RRIRCRPPRLPRPRPRPHFYPRP,-0.305
4,RRIRYRPPRLPRPRPRPIMEPRP,-0.0134
5,RRIRCRPPRLPRPRPRPSYRPRP,-0.242
6,RRIRSRPPRLPRPRPRPQAMPRP,0.182
7,RRIRGRPPRLPRPRPRPMNPPRP,0.217
8,RRIRKRPPRLPRPRPRPGIKPRP,0.34
9,RRIRKRPPRLPRPRPRPRHPPRP,0.412
10,RRIRWRPPRLPRPRPRPDPEPRP,0.159
11,RRIRDRPPRLPRPRPRPKRPPRP,0.449
12,RRIRNRPPRLPRPRPRPAREPRP,0.191
13,RRIRRRPPRLPRPRPRPWIFPRP,0.0818
14,RRIRFRPPRLPRPRPRPQMKPRP,-0.41
15,RRIRDRPPRLPRPRPRPRRYPRP,0.247
16,RRIRMRPPRLPRPRPRPLGWPRP,1.32
17,RRIRYRPPRLPRPRPRPHCKPRP,-0.11
18,RRIRARPPRLPRPRPRPTCFPRP,0.57
19,RRIRIRPPRLPRPRPRPCRCPRP,-0.319
20,RRIRERPPRLPRPRPRPIWEPRP,0.0512
21,RRIRWRPPRLPRPRPRPQVGPRP,0.0734
22,RRIRCRPPRLPRPRPRPVQVPRP,-0.164
23,RRIRRRPPRLPRPRPRPYQQPRP,-0.000903
24,RRIRQRPPRLPRPRPRPYHLPRP,-0.00174
25,RRIRIRPPRLPRPRPRPWWGPRP,0.0378

row,Sequence,shrunken log2 fold change
1,RRIRGRPPRLPRPRPRPNMAPRP,0.875
2,RRIRLRPPRLPRPRPRPEPNPRP,0.0389
3,RRIRLRPPRLPRPRPRPVLLPRP,0.0821
4,RRIRLRPPRLPRPRPRPWTRPRP,-0.148
5,RRIRERPPRLPRPRPRPGSLPRP,-0.431
6,RRIRKRPPRLPRPRPRPIRAPRP,0.14
7,RRIRFRPPRLPRPRPRPPHFPRP,0.341
8,RRIRCRPPRLPRPRPRPHAQPRP,0.0778
9,RRIRYRPPRLPRPRPRPDLRPRP,-1.03
10,RRIRARPPRLPRPRPRPKSTPRP,0.28
11,RRIRWRPPRLPRPRPRPQYVPRP,0.00889
12,RRIRHRPPRLPRPRPRPMCGPRP,-0.181
13,RRIRARPPRLPRPRPRPLWIPRP,-0.0129
14,RRIRMRPPRLPRPRPRPFNVPRP,-0.0076
15,RRIRFRPPRLPRPRPRPAFYPRP,-0.249
16,RRIRHRPPRLPRPRPRPHVIPRP,-0.302
17,RRIRHRPPRLPRPRPRPMISPRP,-0.442
18,RRIRDRPPRLPRPRPRPQSRPRP,-0.123
19,RRIRTRPPRLPRPRPRPCMIPRP,-0.546
20,RRIRKRPPRLPRPRPRPRLDPRP,0.624
21,RRIRQRPPRLPRPRPRPQWAPRP,0.142
22,RRIRGRPPRLPRPRPRPNHGPRP,-0.178
23,RRIRPRPPRLPRPRPRPFFLPRP,-0.041
24,RRIRFRPPRLPRPRPRPWAAPRP,0.385
25,RRIRVRPPRLPRPRPRPICIPRP,-0.449

row,Sequence,shrunken log2 fold change
1,RRIRLRPPRLPRPRPRPWKWPRP,-0.184
2,RRIRQRPPRLPRPRPRPFCIPRP,-0.641
3,RRIRERPPRLPRPRPRPKISPRP,0.000121
4,RRIRERPPRLPRPRPRPYTPPRP,-1
5,RRIRYRPPRLPRPRPRPVEAPRP,-0.35
6,RRIRDRPPRLPRPRPRPSGCPRP,0.0451
7,RRIRPRPPRLPRPRPRPIFGPRP,0.0562
8,RRIRSRPPRLPRPRPRPVSMPRP,0.0888
9,RRIRNRPPRLPRPRPRPWHGPRP,-0.153
10,RRIRKRPPRLPRPRPRPIKTPRP,-0.0153
11,RRIRSRPPRLPRPRPRPRFHPRP,-0.302
12,RRIRPRPPRLPRPRPRPCRGPRP,-0.322
13,RRIRQRPPRLPRPRPRPKTLPRP,-0.156
14,RRIRARPPRLPRPRPRPDKLPRP,0.105
15,RRIRIRPPRLPRPRPRPAEWPRP,-0.124
16,RRIRQRPPRLPRPRPRPSYPPRP,-0.857
17,RRIRMRPPRLPRPRPRPRTLPRP,0.28
18,RRIRNRPPRLPRPRPRPVSMPRP,-0.0312
19,RRIRCRPPRLPRPRPRPKLQPRP,0.155
20,RRIRYRPPRLPRPRPRPEFCPRP,-0.258
21,RRIRWRPPRLPRPRPRPNIVPRP,-0.112
22,RRIRRRPPRLPRPRPRPTSPPRP,0.225
23,RRIRNRPPRLPRPRPRPILMPRP,-0.0495
24,RRIRLRPPRLPRPRPRPQYNPRP,-0.791
25,RRIRCRPPRLPRPRPRPMVQPRP,-0.292

row,Sequence,shrunken log2 fold change
1,RRIRHRPPRLPRPRPRPNFTPRP,-0.104
2,RRIRQRPPRLPRPRPRPDIHPRP,-0.0439
3,RRIRKRPPRLPRPRPRPNPCPRP,0.117
4,RRIRTRPPRLPRPRPRPYSFPRP,-0.552
5,RRIRARPPRLPRPRPRPTDRPRP,0.0653
6,RRIRERPPRLPRPRPRPQKPPRP,0.0657
7,RRIRFRPPRLPRPRPRPPFGPRP,-0.00994
8,RRIRKRPPRLPRPRPRPCHGPRP,0.0847
9,RRIRHRPPRLPRPRPRPWCKPRP,-0.111
10,RRIRLRPPRLPRPRPRPSRYPRP,-0.0576
11,RRIRYRPPRLPRPRPRPGNRPRP,0.0823
12,RRIRLRPPRLPRPRPRPIFAPRP,0.331
13,RRIRIRPPRLPRPRPRPAYYPRP,-0.401
14,RRIRRRPPRLPRPRPRPNDTPRP,-0.115
15,RRIRIRPPRLPRPRPRPWTDPRP,-0.111
16,RRIRARPPRLPRPRPRPWGRPRP,0.198
17,RRIRHRPPRLPRPRPRPDNCPRP,-0.0245
18,RRIRYRPPRLPRPRPRPKRWPRP,0.165
19,RRIRARPPRLPRPRPRPTTYPRP,-0.0877
20,RRIRVRPPRLPRPRPRPIFQPRP,-0.052
21,RRIRYRPPRLPRPRPRPDAVPRP,-0.365
22,RRIRGRPPRLPRPRPRPMPPPRP,1.23
23,RRIRHRPPRLPRPRPRPHVRPRP,-0.0157
24,RRIRRRPPRLPRPRPRPNPEPRP,0.302
25,RRIRARPPRLPRPRPRPENRPRP,0.0495
